Test results taken from the supplement of paper PMC10065799, “High-throughput profiling of sequence recognition by tyrosine kinases and SH2 domains using bacterial peptide display” (eLife, 2023).

biological target: Grb2 SH2 (UniProt P62993); experiment: SH2 binding enrichment of the phosphorylated peptide, bacterial display (enrichment ratio); higher = better substrate or ligand; peptides without Tyr show the background
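Wherever SH2 binding enrichment of the phosphorylated peptide, bacterial display is given: peptide library displayed on the E. coli surface as eCPX fusions, selected cells deep-sequenced, score is each peptide's frequency after selection divided by its frequency in the input.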
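Wherever phosphorylation enrichment, bacterial display is given: 11-residue human phosphosite peptides and single-mutation variants displayed on the E. coli surface, counted by deep sequencing, each peptide's frequency after selection divided by its frequency in the unselected input library; frequency after pTyr selection over input frequency; kinase dosed for 20-30% of maximal phosphorylation in three min.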

Chain of Grb2 SH2 (P62993 whole entry, looked up, the tested form may be a part): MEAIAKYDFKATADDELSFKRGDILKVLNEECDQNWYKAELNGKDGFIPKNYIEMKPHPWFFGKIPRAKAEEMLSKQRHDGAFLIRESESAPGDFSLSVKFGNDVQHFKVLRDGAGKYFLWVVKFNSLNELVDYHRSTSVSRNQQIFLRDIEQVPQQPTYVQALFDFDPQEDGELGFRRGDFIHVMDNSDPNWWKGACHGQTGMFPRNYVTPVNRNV

Going from GQKVAYGGTGD [ALDH3A1_Y305] to LARDIYKNDYY [ROS1_Y2110], the SH2 binding enrichment rises from 0.756 to 1.02.

First: FDAHIYEGRVI [PRKCD_Y64]
Second: MGHVNYGAYIN [GLB1_Y485_R482H]
The SH2 binding enrichment of the first is lower: 0.913 for the first, 5.27 for the second.

Going from CTTIHYNCMCN [TP53_Y234_Y236C] to DAASNYARGHY [TUBA3E_Y103], the SH2 binding enrichment rises from 0.775 to 0.784.

First: ILGRTYYVNHE [NEDD4_Y627]
Second: QRRFLYFFSFL [PTEN_Y176_V175L_YF]
The SH2 binding enrichment of the first is higher: 6.67 for the first, 1.05 for the second.

biological target: c-Src SH2; experiment: as above

Going from GQKVAYGGTGD [ALDH3A1_Y305] to LARDIYKNDYY [ROS1_Y2110], the SH2 binding enrichment rises from 0.48 to 0.881.

Compared with FDAHIYEGRVI [PRKCD_Y64], MGHVNYGAYIN [GLB1_Y485_R482H] is higher in SH2 binding enrichment: 0.713 for the first, 1.39 for the second.

First: CTTIHYNCMCN [TP53_Y234_Y236C]
Second: DAASNYARGHY [TUBA3E_Y103]
The SH2 binding enrichment of the first is lower: 0.508 for the first, 0.524 for the second.

Going from ILGRTYYVNHE [NEDD4_Y627] to QRRFLYFFSFL [PTEN_Y176_V175L_YF], the SH2 binding enrichment falls from 1.41 to 0.774.

biological target: SHP2-C SH2; experiment: as above

First: GQKVAYGGTGD [ALDH3A1_Y305]
Second: LARDIYKNDYY [ROS1_Y2110]
The SH2 binding enrichment of the first is lower: 0.608 for the first, 0.722 for the second.

Compared with FDAHIYEGRVI [PRKCD_Y64], MGHVNYGAYIN [GLB1_Y485_R482H] is higher in SH2 binding enrichment: 0.654 for the first, 0.902 for the second.

First: CTTIHYNCMCN [TP53_Y234_Y236C]
Second: DAASNYARGHY [TUBA3E_Y103]
The SH2 binding enrichment of the first is higher: 0.823 for the first, 0.743 for the second.

Going from ILGRTYYVNHE [NEDD4_Y627] to QRRFLYFFSFL [PTEN_Y176_V175L_YF], the SH2 binding enrichment falls from 2.73 to 0.779.

biological target: EPHB1 (UniProt P54762); experiment: phosphorylation enrichment, bacterial display (enrichment ratio); higher = better substrate or ligand; peptides without Tyr show the background
Sequence (P54762 whole entry, looked up): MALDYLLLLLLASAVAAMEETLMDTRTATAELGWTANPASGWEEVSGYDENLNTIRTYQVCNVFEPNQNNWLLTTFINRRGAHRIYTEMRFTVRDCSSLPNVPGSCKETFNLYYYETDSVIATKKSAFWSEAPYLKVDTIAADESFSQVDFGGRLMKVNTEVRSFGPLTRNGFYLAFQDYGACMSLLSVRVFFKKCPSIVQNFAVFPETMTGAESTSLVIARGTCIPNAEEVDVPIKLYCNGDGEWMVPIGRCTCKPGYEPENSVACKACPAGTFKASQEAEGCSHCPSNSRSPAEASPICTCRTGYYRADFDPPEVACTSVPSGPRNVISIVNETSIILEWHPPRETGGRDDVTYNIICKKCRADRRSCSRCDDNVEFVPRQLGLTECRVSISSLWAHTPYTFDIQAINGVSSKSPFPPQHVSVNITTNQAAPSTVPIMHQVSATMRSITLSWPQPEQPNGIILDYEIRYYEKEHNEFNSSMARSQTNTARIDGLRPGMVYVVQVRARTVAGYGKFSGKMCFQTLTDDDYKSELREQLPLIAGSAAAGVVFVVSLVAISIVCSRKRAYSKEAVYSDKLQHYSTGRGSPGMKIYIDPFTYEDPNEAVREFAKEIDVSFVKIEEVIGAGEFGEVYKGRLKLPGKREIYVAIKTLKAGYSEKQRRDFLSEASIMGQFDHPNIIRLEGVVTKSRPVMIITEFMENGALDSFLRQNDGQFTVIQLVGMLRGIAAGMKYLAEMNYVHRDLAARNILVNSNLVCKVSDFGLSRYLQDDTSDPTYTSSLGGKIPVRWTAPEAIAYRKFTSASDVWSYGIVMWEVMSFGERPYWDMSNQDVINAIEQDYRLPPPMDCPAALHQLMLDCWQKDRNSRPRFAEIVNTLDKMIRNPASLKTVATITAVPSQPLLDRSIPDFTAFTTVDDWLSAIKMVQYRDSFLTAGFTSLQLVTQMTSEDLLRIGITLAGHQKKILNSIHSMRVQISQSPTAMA

Going from GQKVAYGGTGD [ALDH3A1_Y305] to LARDIYKNDYY [ROS1_Y2110], the phosphorylation enrichment rises from 0.268 to 0.953.

Going from FDAHIYEGRVI [PRKCD_Y64] to MGHVNYGAYIN [GLB1_Y485_R482H], the phosphorylation enrichment falls from 0.544 to 0.535.

Going from CTTIHYNCMCN [TP53_Y234_Y236C] to DAASNYARGHY [TUBA3E_Y103], the phosphorylation enrichment falls from 0.591 to 0.383.

Going from ILGRTYYVNHE [NEDD4_Y627] to QRRFLYFFSFL [PTEN_Y176_V175L_YF], the phosphorylation enrichment rises from 0.607 to 0.761.

test system: c-Src; experiment: as above

Going from GQKVAYGGTGD [ALDH3A1_Y305] to LARDIYKNDYY [ROS1_Y2110], the phosphorylation enrichment rises from 0.371 to 1.42.

Going from FDAHIYEGRVI [PRKCD_Y64] to MGHVNYGAYIN [GLB1_Y485_R482H], the phosphorylation enrichment falls from 2.08 to 0.589.

First: CTTIHYNCMCN [TP53_Y234_Y236C]
Second: DAASNYARGHY [TUBA3E_Y103]
The phosphorylation enrichment of the first is higher: 0.468 for the first, 0.43 for the second.

Compared with ILGRTYYVNHE [NEDD4_Y627], QRRFLYFFSFL [PTEN_Y176_V175L_YF] is lower in phosphorylation enrichment: 0.68 for the first, 0.567 for the second.

biological target: FGFR3 (UniProt P22607); experiment: as above
Sequence (P22607 whole entry, looked up): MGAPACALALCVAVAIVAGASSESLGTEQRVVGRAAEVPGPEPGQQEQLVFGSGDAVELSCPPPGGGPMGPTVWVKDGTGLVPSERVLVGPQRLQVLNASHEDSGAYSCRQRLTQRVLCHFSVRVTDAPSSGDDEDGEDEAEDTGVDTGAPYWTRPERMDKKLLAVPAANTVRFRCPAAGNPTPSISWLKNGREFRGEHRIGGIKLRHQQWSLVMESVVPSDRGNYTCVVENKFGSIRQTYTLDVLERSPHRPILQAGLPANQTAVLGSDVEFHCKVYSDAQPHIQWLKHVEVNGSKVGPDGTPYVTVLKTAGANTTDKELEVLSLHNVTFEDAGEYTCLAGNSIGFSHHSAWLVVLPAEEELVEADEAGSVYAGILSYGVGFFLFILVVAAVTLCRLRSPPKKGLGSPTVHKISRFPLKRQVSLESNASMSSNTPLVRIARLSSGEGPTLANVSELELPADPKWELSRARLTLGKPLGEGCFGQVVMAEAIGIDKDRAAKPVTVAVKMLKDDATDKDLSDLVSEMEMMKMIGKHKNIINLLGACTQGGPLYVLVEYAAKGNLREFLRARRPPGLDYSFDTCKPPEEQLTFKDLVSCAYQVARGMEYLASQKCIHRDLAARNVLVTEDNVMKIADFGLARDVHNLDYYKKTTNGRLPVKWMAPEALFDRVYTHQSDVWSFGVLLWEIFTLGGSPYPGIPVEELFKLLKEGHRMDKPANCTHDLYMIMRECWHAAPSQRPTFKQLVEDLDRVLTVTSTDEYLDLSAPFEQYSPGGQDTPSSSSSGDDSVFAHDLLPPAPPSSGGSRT

Going from GQKVAYGGTGD [ALDH3A1_Y305] to LARDIYKNDYY [ROS1_Y2110], the phosphorylation enrichment rises from 0.416 to 2.19.

Compared with FDAHIYEGRVI [PRKCD_Y64], MGHVNYGAYIN [GLB1_Y485_R482H] is lower in phosphorylation enrichment: 0.574 for the first, 0.444 for the second.

First: CTTIHYNCMCN [TP53_Y234_Y236C]
Second: DAASNYARGHY [TUBA3E_Y103]
The phosphorylation enrichment of the first is higher: 0.715 for the first, 0.463 for the second.

Going from ILGRTYYVNHE [NEDD4_Y627] to QRRFLYFFSFL [PTEN_Y176_V175L_YF], the phosphorylation enrichment rises from 0.682 to 1.16.

test system: Fer (mouse); experiment: as above

Compared with GQKVAYGGTGD [ALDH3A1_Y305], LARDIYKNDYY [ROS1_Y2110] is lower in phosphorylation enrichment: 0.384 for the first, 0.369 for the second.

Compared with FDAHIYEGRVI [PRKCD_Y64], MGHVNYGAYIN [GLB1_Y485_R482H] is lower in phosphorylation enrichment: 2.12 for the first, 0.395 for the second.

Compared with CTTIHYNCMCN [TP53_Y234_Y236C], DAASNYARGHY [TUBA3E_Y103] is lower in phosphorylation enrichment: 0.541 for the first, 0.342 for the second.

Compared with ILGRTYYVNHE [NEDD4_Y627], QRRFLYFFSFL [PTEN_Y176_V175L_YF] is higher in phosphorylation enrichment: 0.507 for the first, 0.862 for the second.

biological target: EPHB2 (UniProt P29323); experiment: as above
Sequence (P29323 whole entry, looked up): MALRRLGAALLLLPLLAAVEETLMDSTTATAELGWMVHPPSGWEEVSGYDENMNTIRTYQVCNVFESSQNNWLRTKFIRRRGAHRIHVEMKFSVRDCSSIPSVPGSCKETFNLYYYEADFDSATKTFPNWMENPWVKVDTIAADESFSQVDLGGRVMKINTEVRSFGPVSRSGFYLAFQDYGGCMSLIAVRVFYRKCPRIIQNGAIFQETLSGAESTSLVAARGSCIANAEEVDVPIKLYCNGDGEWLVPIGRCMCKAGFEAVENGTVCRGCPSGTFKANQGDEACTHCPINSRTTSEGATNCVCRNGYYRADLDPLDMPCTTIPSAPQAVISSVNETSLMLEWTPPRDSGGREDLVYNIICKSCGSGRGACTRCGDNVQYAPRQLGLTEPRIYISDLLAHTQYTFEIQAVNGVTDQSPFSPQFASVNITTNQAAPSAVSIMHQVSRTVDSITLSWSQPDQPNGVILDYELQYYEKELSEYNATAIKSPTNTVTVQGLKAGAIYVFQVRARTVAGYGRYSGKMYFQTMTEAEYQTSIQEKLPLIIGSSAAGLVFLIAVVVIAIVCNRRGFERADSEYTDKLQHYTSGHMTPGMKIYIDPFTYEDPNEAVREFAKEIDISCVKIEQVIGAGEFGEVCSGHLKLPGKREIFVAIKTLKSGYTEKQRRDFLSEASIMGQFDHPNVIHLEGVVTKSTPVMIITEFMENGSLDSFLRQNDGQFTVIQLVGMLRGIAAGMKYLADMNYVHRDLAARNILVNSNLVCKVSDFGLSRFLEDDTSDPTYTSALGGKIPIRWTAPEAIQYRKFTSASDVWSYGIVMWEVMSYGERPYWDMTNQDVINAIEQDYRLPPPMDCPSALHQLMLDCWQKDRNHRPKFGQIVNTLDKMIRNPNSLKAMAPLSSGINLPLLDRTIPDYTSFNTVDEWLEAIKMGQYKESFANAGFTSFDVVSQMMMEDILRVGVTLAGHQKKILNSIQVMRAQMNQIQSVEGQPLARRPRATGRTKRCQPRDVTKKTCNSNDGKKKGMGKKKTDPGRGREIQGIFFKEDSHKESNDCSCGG

Going from GQKVAYGGTGD [ALDH3A1_Y305] to LARDIYKNDYY [ROS1_Y2110], the phosphorylation enrichment rises from 0.342 to 0.782.

First: FDAHIYEGRVI [PRKCD_Y64]
Second: MGHVNYGAYIN [GLB1_Y485_R482H]
The phosphorylation enrichment of the first is lower: 0.609 for the first, 0.796 for the second.

Going from CTTIHYNCMCN [TP53_Y234_Y236C] to DAASNYARGHY [TUBA3E_Y103], the phosphorylation enrichment falls from 0.712 to 0.524.

Going from ILGRTYYVNHE [NEDD4_Y627] to QRRFLYFFSFL [PTEN_Y176_V175L_YF], the phosphorylation enrichment rises from 0.539 to 0.817.
